We go through 1 molecule from patent publication US5767250, “Complexes comprising truncated CMV gH polypeptides and escort proteins” (Chiron Corporation, dated 1998).

This assay deals with basic FGF (human, UniProt P09038, radioiodinated (125I) in the soluble binding assay and the radioreceptor assay). The assay is described as follows: soluble binding assay: EC-FGF receptor on concanavalin A coated wells, 125I-bFGF with increasing bFGF, Scatchard analysis.

A value given as a limit tells only on which side of the number the result lay.

B1: EC-FGF receptor, soluble extracellular domain of the human FGF receptor flg5 expressed in a baculovirus system (receptor)
chain: RPSPTLPEQAQPWGAPVEVESFLVHPGDLLQLRCRLRDDVQSINWLRDGVQLAESNRTRITGEEVEVQDSVPADSGLYACVTSSPSGSDTTYFSVNVSDALPSSEDDDDDDDSSSEEKETDNTKPNPVAPYWTSPEKMEKKLHAVPAAKTVKFKCPSSGTPNPTLRWLKNGKEFKPDHRIGGYKVRYATWSIIMDSVVPSDKGNYTCIVENEYGSINHTYQLDVVERSPHRPILQAGLPANKTVALGSNVEFMCKVYSDPQPHIQWLKHIEVNGSKIGPDNLPYVQILKTAGVNTTDKEMEVLHLRNVSFEDAGEYTCLAGNSIGLSHHSAWLTVLEALEERPAVMTSPLYLE
In general, Kd refers to the equilibrium constant for the complex coming apart. A lower Kd goes with a tighter complex. B1 came in with a Kd of under 5 nM.
